From WO2022196697A1 (dated 2022) come the findings set out here.

The target of test [1] is T1, HER2 immunoprecipitated from the membrane fraction of cardiomyocytes (human, UniProt P04626 23-1255).
T1 construct: also called cardiomyocyte-derived HER2; myocardial cell-derived HER2
The experiment in a line: lectin blot of immunoprecipitated HER2 after electrophoresis (legend of Fig. 3).

Test [2] addresses T2, HER2 immunoprecipitated from the membrane fraction of HER2-type breast cancer cells (HER2 solution) (human, UniProt P04626 23-1255, glycosylated; also tested after PNGase F treatment).
T2 construct: Not fractionated by lectin; also called breast cancer cell-derived HER2; unfractionated HER2
The experiment in a line: lectin array with immunoprecipitated HER2, with and without PNGase F; confirmed by Western and lectin blotting.

B1: AOL (Aspergillus oryzae lectin) (other, UniProt Q2UNX8 1-311, looked up)
chain: MSTPGAQEVLFRTGIAAVNSTNHLRVYFQDSHGSIRESLYESGWANGTAKNVIAKAKLGTPLAATSKELKNIRVYSLTEDNVLQEAAYDSGSGWYNGALAGAKFTVAPYSRIGSVFLAGTNALQLRIYAQKTDNTIQEYMWNGDGWKEGTNLGVALPGTGIGVTCWRYTDYDGPSIRVWFQTDNLKLVQRAYDPHTGWYKELTTIFDKAPPRCAIAATNFNPGKSSIYMRIYFVNSDNTIWQVCWDHGQGYHDKRTITPVIQGSEIAIISWEGPELRLYFQNGTYVSAISEWTWGKAHGSQLGRRALPPAE
notes: also called biotinylated AOL
Turning to B1, the binding result in test [1] and in test [2] was “binds” in each case.

B2: AAL (Aleuria aurantia lectin) (other, UniProt P18891 2-313, looked up)
chain: PTEFLYTSKIAAISWAATGGRQQRVYFQDLNGKIREAQRGGDNPWTGGSSQNVIGEAKLFSPLAAVTWKSAQGIQIRVYCVNKDNILSEFVYDGSKWITGQLGSVGVKVGSNSKLAALQWGGSESAPPNIRVYYQKSNGSGSSIHEYVWSGKWTAGASFGSTVPGTGIGATAIGPGRLRIYYQATDNKIREHCWDSNSWYVGGFSASASAGVSIAAISWGSTPNIRVYWQKGREELYEAAYGGSWNTPGQIKDASRPTPSLPDTFIAANSSGNIDISVFFQASGVSLQQWQWISGKGWSIGAVVPTGTPAGW
notes: also called AAL lectin
As for B2, the binding result in test [1] and in test [2] was “binds” in each case.
